B1: E-box-wt probe (SUN promoter, 42 bp) (dsDNA)
DNA 1: TGTCCATCAAGACCGAAACAAATGAGAAAAATCACCTAGTGT
DNA 2: ACACTAGGTGATTTTTCTCATTTGTTTCGGTCTTGATGGACA
B2: E-box-mt probe (CAAATG to TCGCGA) (dsDNA)
DNA 1: TGTCCATCAAGACCGAAATCGCGAAGAAAAATCACCTAGTGT
DNA 2: ACACTAGGTGATTTTTCTTCGCGATTTCGGTCTTGATGGACA

Biological target: BZR1.7 (His-6-MBP-BZR1.7) (Solanum lycopersicum, UniProt A0A3Q7IIT4 1-180)
Assay: EMSA; EMSA: 20 uL binding reaction buffer (composition not given), 40 min at 4 °C in the dark; 6% native PAGE, 0.5x TBE, 4 °C; pH and salt not given
Conditions: protein: recombinant; tags: His6-MBP, N-terminal; label: 5'-FAM (on one strand; partner unlabeled); blunt

Chain of BZR1.7 (His-6-MBP-BZR1.7) (A0A3Q7IIT4 entry or part of it): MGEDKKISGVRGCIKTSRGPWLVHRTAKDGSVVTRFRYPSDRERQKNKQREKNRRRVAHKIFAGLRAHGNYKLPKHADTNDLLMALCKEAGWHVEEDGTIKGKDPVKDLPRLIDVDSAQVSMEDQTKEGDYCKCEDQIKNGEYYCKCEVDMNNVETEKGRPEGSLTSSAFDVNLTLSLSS

Row | Binder | binding result
1 | B1 | binds
2 | B2 | no binding

— PMC9347012, “Regulation of tomato fruit elongation by transcription factor BZR1.7 through promotion of SUN gene expression”
